Test system: MS2 coat protein
Assay: apparent KD of MS2 coat protein; higher = weaker reporter binding
Conditions: Eterna round: R107
How it was run: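 For every design, apparent KD is the median of normalised binding-curve fits from its clusters. The RNA switches were transcribed on-chip from Illumina sequencing clusters and titrated with SNAP-549-labelled MS2 coat protein (twofold steps, 0.7 or 1.5 nM to 3 µM; 0.8–1.5 h to 10–20 min per step). Titrations used 100 mM Tris-HCl pH 7.5, 80 mM KCl, 4 mM MgCl2, without or with constant ligand.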

[1] = input ligand: theophylline 20 uM
[2] = input ligand: theophylline 2 mM
[3] = input ligand: tryptophan 2.4 mM

Sequence	apparent KD of MS2 coat protein (input ligand: arginine 13.2 mM) [nM]	apparent KD of MS2 coat protein [1] [nM]	apparent KD of MS2 coat protein [2] [nM]	apparent KD of MS2 coat protein (input ligand: none) [nM]	apparent KD of MS2 coat protein [3] [nM]
CCUCAUGAACAUGAGGAUCACCCAUGUACACGAGGACCGGUACGGCCGCCACUCGAAUAAGCUAAAUAUAAAUAAUAAUAAUAGC [5' end split MS2]	18.4	18.3	16.8		
UUACACAUGAGGAUCACCCAUGUCUGGGAGCGAGGACCGGUACGGCCGCCACUCGAAUUGUCAGGGCUAUGCCGGACGAUGCAUC [theeternabot_sameState_MS2_Trp_A_20]	20.6	23.5	25		
CAAUGCAGGUCGGCCGCCACUACACACAUGAGGAUCACCCAUGUAGUUACUGGGUGAAGUGGCAGUAGGACCGGGACCUGCAUAA [Brourdmod02]	143	417	568		
GGGAUAUCCCGAAGGAGCGCGAGAUGCUGUGCUGCAUUCCUCACAUGAGGAUCACCCAUGUCGCAGGUAGGUCGCGGGAUAUCCC [#16 Exclusion - Arginine B]	151	452	553	450	485
GGCCGAAACGGCCAAGGUAUCAUGACCGAUACCAGCGAAGAAGAACGCCCUUGGCAGCGGACAUGAGGAUCACCCAUGUAAAGAA	24.5	38.3	124	16	13.9
UUGGGUUUGCGAAGGAGCGGGUAUGUUUUCUAGUGGAUCCUAACAUGAGGAUCACCCAUGUCCCAGGUAGGUCGCGCGGGUUUGG [12.V]	89.1	230	224	122	148
GCUUGGGUGGCCCAGCCCUGGCAGGGCGAUACCAGCCCGGUAACGGGCCCUUGGCAGCGCACAUGAGGAUCACCCAUGUGGUGCG [#1 Exclusion - Theophylline A Attempt #28 (HarryS)]	22.4	60.3	85	52.4	44.9
AGCACAUGAGGAUCACCCAUGUGUCGGUACCGAGGACCGGUACGGCCGCCACUCGCAGGACAUGAGGAUCACCCAUGUGCCGCCG [SSTA DOUBLE!!! :-D #8]	14	36.1	35.9		
GCUGCCAUACGAAGGAGCGCUGCUGCGAUGUGGCGAACAUGAGGAUCACCCAUGUGGCAGCAGCAGGUAGGUCGCGUAUGGCAGC [#01 Exclusion - Arginine B]	131	489	259	144	198
GGAUAGGACAGAAGGAGCGACAUGAGGAUCACCCAUGUCUACCACGUCGAAAGACGCUCAUGUCAGGUAGGUCGCUGUCCUAUCG [ArgXB 9 #StaticStem #MS2LeftOffAptamer]	101	191	183	153	113
GUCCUCAGCCGAAGGAGCGCUAGAAGAUGACAUGAGGAUCACCCAUGUGUGUGAUGUGGCUAGCAGGUAGGUCGCGGAGAGGAUU [Exclusion - Arginine B (Freestyle 16)]	19.8	37.1	28	22.9	20.6
GUAUACAUGAGGAUCACCCAUGUGCCAGAAGGAGCGCUGGAAACGGCAGGUAGGUCGCUGGUAGGUCCUCUAUCUAGACGUUCGG [#17 Exclusion - Arginine A]	52.6	188	188	97.5	60.3
AUUAUCAUGGUCAUAUAUAUUUCGUCAGAUACCAGACUAGAUAUAGUCCCUUGGCAGCUGUUACAUGAGGAUCACCCAUGUUAUA [JR_ExcTheophyA_Sub016]	55	76.8			93.3
CACAUGAGGAUCACCCAUGUCUGAACUGAAGGAGCGCUAAACAAGGCAGGUAGGUCGCGGAAUCUUGUGUGCAUAUGCACACGGG [9.S]	18.4	27.4	22.7	18.2	19.9
ACGCCCAGGUAGGCUUAGUGGGAAAUGGAAGGAGCGCUGAUGCAAGCAGGUAGGUCGCCAACGAACAUGAGGAUCACCCAUGUAA [Same State - Arginine A (Freestyle 1)]	14	29.8	20.7	17.9	16.4
ACAUGAGGAUCACCCAUGUACAUGAGGGAAGGAGCGGUACAUGUGCCAGGUAGGUCGCCCAUGAGCAUCAGCCAUGUACAUCAGC [l,ommullin]	42.1	102	75.3	82.7	75
AUCGUACCUGAGGAUACCAGCAUGUGAUCAUAACAUGAGGAUCACCCAUGUAAUCAGUGAUGCCCUUGGCAGCUUGGUCGAUACA [Same State - Theophylline B (Freestyle 9)]	42.5	75			46.2
GGGUACAUCGCGGCCGCCACUUAUGUAAAUACAUGAGGAUCACCCAUGUCGAUGGAGACAUCGGAGAGGACCGGGUGAUGUACCG	28.2	41.6	48		
AACUGGACCCGUGAUACCAGAGACAUGAGGAUCACCCAUGUACAUGAGGAUCACCCAUGUCUCCCUUGGCAGCACCGCAGGGAGC [Exclusion Theophylline B GF 13]	45.7	127			128
UUUGUAAUUGUCUGGUAGAUUUAUUUAUUUCGAGGACCGGUACGGCCGCCACUCGUUAAUUACAUGAGGAUCACCCAUGUUAGCU [JR_ExcTryptoA_Sub008]	14.1	17.1	15		

Sequence	apparent KD of MS2 coat protein (input ligand: arginine 13.2 mM) [nM]	apparent KD of MS2 coat protein [1] [nM]	apparent KD of MS2 coat protein [2] [nM]	apparent KD of MS2 coat protein (input ligand: none) [nM]	apparent KD of MS2 coat protein [3] [nM]
GGGCCCGGGCGCGAGCCCGGGCCCAUUGAUACCAGUGAUAUAUGACGCCCUUGGCAGCGAAUCCUAACAUGAGGAUCACCCAUGU [5.H]	22.8	58.9	81.6	54.7	37.1
ACGUCAUGGAGAACGUGACGACUUAUCGAUACCAGCGAUUGAGAGCGCCCUUGGCAGCGAACAUGAGGAUCACCCAUGUCAAGGG [Same State - Theophylline A]	29.1	36.5			29.4
AAUAAGAUGAGGAUCACCCAUCUAAAAGAUACCAGAGUGAUGAUCCUCCCUUGGCAGCUUAACGCUGAUUGAUUACAAUCAGCGA	21.7	124	121	47.2	25.3
GGUCGCCAACAUGGGUGGGCGACCCUGGAAGGAGCGAGCGAGAGCUCAGGUAGGUCGCCAGAACAUGAGGAUCACCCAUGUAAUA [(A)''-(M)'-(A)'(Arg1)-(Arg2)-(M1)-(M2)_Design13]	70.8	162	70.3	44.5	59.6
ACAUUAGCCACGGCCGCCACUGCCUUAUGAUUAUAAGGAUUAAUGAACAUGAGGAUCACCCAUGUCAGGACCGGGUGCCUACCAU [SSTryp B #5]	20.1	32.5	26.5		
GGGUACAUCGCGGCCGCCACUGAUGUAAAUACAUGAGGAUCACCCAUGUCGAUGGAGACAUCGGCCAGGACCGGGUGAUGUACCG	13.1	24.1	16.5	14	11.6
ACGUGCAGCAGAAGGAGCGUCUUAAUUCUACAUGAGGAUCACCCAUGUUUACAUUGGAUAUGACAGGUAGGUCGCUGAAGUACGA [#05 Same State - Arginine B]	36.2	41.7	37.2	30	18
AGCUCGCAUCCUCUAGCGUCAAAGACGCCUCGAGGACCGGUACGGCCGCCACUCGAGAUGAGGAUCACCCAUCUCAAAGCGAGCA [TrypAX 14 #SwitchBubble #AlternativeMS2 #MS2Late #CuTurnoff]	71.6	197	254		156
ACACAUGAGGAUCACCCAUGUGCGCUGGAAGGAGCGCAGAAUCAUGCAGGUAGGUCGCCAGUGCCUUUUGAUAAAGGGAAAAGAA [Cezaquce]	66.1	94.6	69.3	86.1	60.6
UGUAUGUGAUCUGAUACCAGUCCAACUGGUAAAACUUGAGGAUCACCCAGGUAAAAUUGGGACCCUUGGCAGCAGAUCGCAUACU	150	597	129	316	705
UUAUAAGUACCGGUCCUCAGAUCCUCAUGACGAGGACCGGUACGGCCGCCACUCGAAACAUGAGGAUCACCCAUGUAAUAAUAAC [Brourdmod04]	23.3	92.1	37.7		
CCCUGGGUGGGAAGGAGCGCAUAGUGAACAUGAGGAUCACCCAUGUGUAGACGUGAGUCACUGCAGGUAGGUCGCCCACCCAGGG [SS-ArgB23]	19.5	47.3	46.5	27.5	29.5
ACAUGAGGAUCACCCAUGUACGAGUCGGAAGGAGCGGCAAUUAAGCCAGGUAGGUCGCCGGCAGAGAGUGUCAUUGUAAGUAUGA [Same State - Arginine A / A]	14.2	26.8	12.3	14.8	14
UUUGAUAGAACAGAUACCAGCGUGUUAUAAAACAUGAGGAUCACCCAUGUAGUGAUCAAGCGCCCUUGGCAGCUGGUUUGUUAGG [7.I]	76.4	122			161
AGGACCAGGAUCCUCAUGUAACUGGUCCAACGAGGACCGGUACGGCCGCCACUCGAAUAAACAUGAGGAUCACCCAUGUAAUAAU [T''-M-T'-T-MS2]	36.9	169	313	268	426
UGACACAUGAGGAUCACCCAUGUCGCGAAACGAGGACCGGUACGGCCGCCACUCGCACAAACUCCUCUCCAGCACCAGCUUUUAG [theeternabot_sameState_MS2_Trp_A_3]	15.4	28.2	24.2		
CUGGACAUGAGGAUCACCCAUGUAAAUCCUCGAGGACCGGUACGGCCGCCACUCGAACGAGUGGCGCGCGCGCGCGCGCGCGCGC [aIa]	23.5	142	89.5	54.3	62.9
AUUUAUUGUCGUGAUACCAGACAUACAUGAGGAUCACCCAUGUUAAGUAACUUUUUUCAGGUCCCUUGGCAGCACUUUUUAAUUA [JR_Nu_SSTheophyB_Sub019]	21.1	23.8			18.1
AUAACAUGAGGAUCACCCAUGUUGAGUGAUACCAGACCAUGUAGUGUCCCUUGGCAGCACAGGUAAAGUUGUAAAUAACGAUAGA [#13 SameState-TheophyllineA]	38.6	64.7	22.8	53.9	59.7

Source: the supplement of paper PMC9170038
